# Test results: publication PMC8809517, “Cofactor-independent RNA editing by a synthetic S-type PPR protein”
# T1: GFP-9S library array, motif 4 ND N98C (synthetic construct, N98C)
# T1 chain: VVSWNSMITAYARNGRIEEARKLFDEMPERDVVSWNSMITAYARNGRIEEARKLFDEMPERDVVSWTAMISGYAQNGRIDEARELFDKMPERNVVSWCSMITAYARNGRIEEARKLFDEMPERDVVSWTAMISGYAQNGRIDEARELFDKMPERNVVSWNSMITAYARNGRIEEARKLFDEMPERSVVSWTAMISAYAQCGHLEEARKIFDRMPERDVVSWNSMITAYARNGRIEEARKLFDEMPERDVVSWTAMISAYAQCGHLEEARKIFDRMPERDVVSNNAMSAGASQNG
# T2: GFP-9S library array, motif 4 ND N98Y;D124S (synthetic construct, N98Y;D124S)
# T2 chain: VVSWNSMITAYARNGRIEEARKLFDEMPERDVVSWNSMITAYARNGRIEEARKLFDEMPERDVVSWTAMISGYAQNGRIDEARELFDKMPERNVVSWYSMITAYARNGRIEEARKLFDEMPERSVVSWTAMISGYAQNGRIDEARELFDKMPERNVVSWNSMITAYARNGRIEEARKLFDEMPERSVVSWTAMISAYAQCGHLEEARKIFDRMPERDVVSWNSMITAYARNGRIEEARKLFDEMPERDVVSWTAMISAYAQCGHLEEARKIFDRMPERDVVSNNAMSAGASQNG
# T3: GFP-9S library array, motif 4 ND N98T;D124K (synthetic construct, N98T;D124K)
# T3 chain: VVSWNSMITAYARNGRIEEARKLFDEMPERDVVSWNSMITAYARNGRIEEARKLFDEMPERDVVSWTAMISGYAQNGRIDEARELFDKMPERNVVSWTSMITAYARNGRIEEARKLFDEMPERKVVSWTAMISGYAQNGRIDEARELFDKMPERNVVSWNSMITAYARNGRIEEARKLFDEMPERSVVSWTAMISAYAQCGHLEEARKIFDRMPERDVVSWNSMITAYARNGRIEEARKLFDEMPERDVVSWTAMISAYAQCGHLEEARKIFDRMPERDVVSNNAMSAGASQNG
# T4: GFP-9S library array, motif 4 ND N98R;D124R (synthetic construct, N98R;D124R)
# T4 chain: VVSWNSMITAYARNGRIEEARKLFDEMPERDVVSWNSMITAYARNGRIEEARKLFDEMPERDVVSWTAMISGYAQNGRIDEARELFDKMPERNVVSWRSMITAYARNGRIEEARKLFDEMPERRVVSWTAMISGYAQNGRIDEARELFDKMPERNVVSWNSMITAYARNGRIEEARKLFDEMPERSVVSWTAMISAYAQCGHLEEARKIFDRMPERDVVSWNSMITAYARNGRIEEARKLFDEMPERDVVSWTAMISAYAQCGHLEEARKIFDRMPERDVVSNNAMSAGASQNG
# T5: GFP-9S library array, motif 4 ND N98E;D124P (synthetic construct, N98E;D124P)
# T5 chain: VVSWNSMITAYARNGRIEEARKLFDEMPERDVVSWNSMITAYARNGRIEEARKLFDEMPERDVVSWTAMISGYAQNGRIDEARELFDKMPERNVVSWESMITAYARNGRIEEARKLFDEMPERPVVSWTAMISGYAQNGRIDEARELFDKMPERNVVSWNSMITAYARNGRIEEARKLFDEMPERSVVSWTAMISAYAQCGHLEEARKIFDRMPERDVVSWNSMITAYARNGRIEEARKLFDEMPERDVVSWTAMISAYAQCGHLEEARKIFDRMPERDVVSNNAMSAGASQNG
# How the values were obtained:
# Assay in all cases: high-throughput RNA pulldown from lysate on Ni-NTA beads; HRP: 50 mM Tris pH 8, 150 mM NaCl, 1 mM beta-mercaptoethanol, 50 ug/ml BSA, 3 ug/ml yeast RNA, 0.5% heparin; ITC and FP: Tris pH 8, 200 mM KCl, 5% glycerol; MST: 50 mM Tris pH 8, 200 mM NaCl, 1 mM DTT, BSA, heparin, 0.05% Tween 20
# Settings in all cases: tags: N-terminal His-eGFP
# [1] = target: T1, GFP-9S library array, motif 4 ND N98C
# [2] = target: T2, GFP-9S library array, motif 4 ND …
# [3] = target: T3, GFP-9S library array, motif 4 ND …
# [4] = target: T4, GFP-9S library array, motif 4 ND …
# [5] = target: T5, GFP-9S library array, motif 4 ND …
Binder,Kd ([1]; label: 5' Cy5) [nM],Kd ([2]; label: 5' Cy5) [nM],Kd ([3]; label: 5' Cy5) [nM],Kd ([4]; label: 5' Cy5) [nM],Kd ([5]; label: 5' Cy5) [nM],Kd ([1]; label: 5' IRDye 800CW) [nM],Kd ([2]; label: 5' IRDye 800CW) [nM],Kd ([3]; label: 5' IRDye 800CW) [nM],Kd ([4]; label: 5' IRDye 800CW) [nM],Kd ([5]; label: 5' IRDye 800CW) [nM]
AUUAGACGUGA (ssRNA) [Cy5-rpoA-G],620,224,131,53.3,102,,,,,
AUUACACGUGA (ssRNA) [Cy5-rpoA],491,168,131,97.6,130,,,,,
AUUAAACGUGA (ssRNA) [IR-rpoA-A],,,,,,1290,911,53.4,82,264
AUUAUACGUGA (ssRNA) [IR-rpoA-U],,,,,,651,134,81.9,97.9,271
